Here are results for three molecules from patent US20240036027A1 (UNIVERSITY OF MASSACHUSETTS, published 2024).

In assay [1] the target is T1, Streptavidin (unconjugated, EMD Millipore) (UniProt P22629 37-163). In words: single-channel current recording, kOff=1/tauOff.
In assay [2] the target is T1, Streptavidin (unconjugated, EMD …). In words: single-channel current recording, kOn=1/(C*tauOn).
Assay [3] shares this target. In words: single-channel current recording, apparent Kd=kOff/kOn, N=3, n=903.
The target is the same in assay [4]. As to the kind of experiment: single-channel current recording, calculated from kOff and kOn.
The target is the same in assay [5]. As to the kind of experiment: single-channel current recording, streptavidin alone, N=12, n=2846.
For assay [6] the target is unchanged. In words: single-channel current recording, streptavidin alone, concentration dependence.
Assay [7] shares this target. In words: single-channel current recording.
Assay [8] has the same target. In words: single-channel current recording, discrete binding events.
Assay [9] shares this target. As to the kind of experiment: single-channel current recording, KOff of the lower Ires state taking transient returns to basal conductance as dissociation.

T1 sequence (P22629 37-163 limits assumed): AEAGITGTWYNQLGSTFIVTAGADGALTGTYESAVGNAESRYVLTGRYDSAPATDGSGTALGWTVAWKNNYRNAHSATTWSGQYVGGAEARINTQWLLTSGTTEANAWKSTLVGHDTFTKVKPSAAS

B1: OmpG^L6-SA1.1 (designed binder)
chain: MEERNDWHFNIGAMYEIENVEGYGEDMDGLAEPSVYFNAANGPWRIALAYYQEGPVDYSAGKRGTWFDRPELEVHYQFLENDDFSFGLTGGFRNYGYHYVDEPGKDTANMQRWKIAPDWDVKLTDDLRFNGWLSMYKFANDLNTTGYADTRVETETGLQYTFNETVALRVNYYLERGFNMDDSRNNGEFSTQEIRAYLPLTLGNHSVTPYTRIGLDRWSNWDWQGLEICQNVCYYGDDIEREGHDFNRVGLFYGYDFQNGLSVSLEYAFEWQDHDEGDSDKFHYAGVGVNYSF
notes: also called Loop 6 SA1.1
In turn, B1 displayed a dissociation rate constant (koff) in [1] of 0.783 s⁻¹. The kon in assay [2] is 69100 M⁻¹ s⁻¹. The Kd in assay [3] came to 8.83 µM.

B2: OmpG^L3-FLAG/L6-SA1.1 (designed binder)
chain: MEERNDWHFNIGAMYEIENVEGYGEDMDGLAEPSVYFNAANGPWRIALAYYQEGPVDYSAGKRGTWFDRPELEVHYQFLENDDFSFGLTGGFRNYGYHYVDEPGDYKDDDDKGGKDTANMQRWKIAPDWDVKLTDDLRFNGWLSMYKFANDLNTTGYADTRVETETGLQYTFNETVALRVNYYLERGFNMDDSRNNGEFSTQEIRAYLPLTLGNHSVTPYTRIGLDRWSNWDWQGLEICQNVCYYGDDIEREGHDFNRVGLFYGYDFQNGLSVSLEYAFEWQDHDEGDSDKFHYAGVGVNYSF
notes: Possible glycines beside SA1.1 (primers) not built in; also called multiplex sensor; SA1.1 multiplex sensor
For B2, in [4], the Kd is 7.54 µM. Also, the koff in assay [5] came out at 0.552 s⁻¹. This molecule also registered an on-rate constant (kon) in assay [6] of 73200 M⁻¹ s⁻¹.

B3: OmpG^L3/L6-SA1.1 (designed binder)
chain: MEERNDWHFNIGAMYEIENVEGYGEDMDGLAEPSVYFNAANGPWRIALAYYQEGPVDYSAGKRGTWFDRPELEVHYQFLENDDFSFGLTGGFRNYGYHYVDEPGLEICQNVCYYGGKDTANMQRWKIAPDWDVKLTDDLRFNGWLSMYKFANDLNTTGYADTRVETETGLQYTFNETVALRVNYYLERGFNMDDSRNNGEFSTQEIRAYLPLTLGNHSVTPYTRIGLDRWSNWDWQGLEICQNVCYYGDDIEREGHDFNRVGLFYGYDFQNGLSVSLEYAFEWQDHDEGDSDKFHYAGVGVNYSF
notes: SA1.1 motif in both loops 3 and 6; also called avidity sensor; avidity nanopore sensor
Regarding B3, in assay [7], the “fold change of KOff against OmpG^L6-SA1.1” value is roughly 76 fold and the “fold change of KOn against OmpG^L6-SA1.1” value is roughly 4.7 fold. In assay [8], this molecule displayed a koff of 0.0103 s⁻¹ and a kon of 326000 M⁻¹ s⁻¹. The koff in [9] turned out to be 0.701 s⁻¹.

What is called koff is the first-order rate constant of dissociation. High values mean a short-lived complex, low ones a long-lived complex. For orientation: kon means a measure of how fast the partners come together. A low value points to slow association.
